Test results: publication PMC12080763

What was measured:
[1] = biological target: truncated prolactin receptor of Nb2 cells (rat (endogenous in Nb2-11))
[2] = biological target: truncated prolactin receptor of Nb2 cells (rat (endogenous in Nb2-11)); remark: listed apart in the source

## Mono-hGH-(FL3)-Fc (from UniProt P01241 27-217) (Fc fusion)
[1]
  EC50 of Nb2-11 cell proliferation (Alamar Blue, 3 days), Fig 3A: 1.64 nM

## Fc-(FL3)-mono-hGH (from UniProt P01241 27-217) (Fc fusion)
[2]
  EC50 of Nb2-11 cell proliferation (Alamar Blue, 3 days), Fig 3C: 0.81 nM
